Source: US20210380703A1 (RIGEL PHARMACEUTICALS, published 2021)

B1: 375_E07 (antibody, V domains shown)
VH: EVQLLESGGGLVQPGGSLRLSCAASGFTFSDYSMNWVRQAPGKGLEWVAGINYNSGYKGYADSVKGRFTISRDNSKNTLYLQMNSLRAEDTAVYYCARSANWHDTALDYWGQGTLVTVSS
VL: DIQMTQSPSSLSASVGDRVTITCRASQSIVTYLNWYQQKPGKAPKLLIYVVTNRESGVPSRFSGSGSGTDFTLTISSLQPEDFATYYCQQSYETPLTFGGGTKVEIK
notes: VH/VL only
B2: 376_B07 (antibody, V domains shown)
VH: EVQLLESGGGLVQPGGSLRLSCAASGFTFDSYSMNWVRQAPGKGLEWVSGINYNSGYTSYADSVKGRFTISRDNSKNTLYLQMNSLRAEDTAVYYCARSATWHDTALDYWGQGTLVTVSS
VL: DIQMTQSPSSLSASVGDRVTITCRASQSILSYLNWYQQKPGKAPKLVIYYVSNRASGVPSRFSGSGSGTDFTLTISSLQPEDFATYYCQQSYDNPLTFGGGTKVEIK
notes: VH/VL only
B3: 376_C06 (antibody, V domains shown)
VH: EVQLLESGGGLVQPGGSLRLSCAASGFTFSSYGMNWVRQAPGKGLEWVAGINYNGGYTSYADSVKGRFTISRDNSKNTLYLQMNSLRAEDTAVYYCARSATWHDTALDYWGQGTLVTVSS
VL: DIQMTQSPSSLSASVGDRVTITCRASQSILSYLNWYQQKPGKAPKLVIYAATSRASGVPSRFSGSGSGTDFTLTISSLQPEDFATYYCQQSYDSPLTFGGGTKVEIK
notes: VH/VL only
B4: 376_C02 (antibody, V domains shown)
VH: EVQLLESGGGLVQPGGSLRLSCAASGFTFDSYGMNWVRQAPGKGLEWVSGINYNSGYTSYADSVKGRFTISRDNSKNTLYLQMNSLRAEDTAVYYCARSANWHDTALDYWGQGTLVTVSS
VL: DIQMTQSPSSLSASVGDRVTITCRASQSIVSYLNWYQQKPGKAPKLVIYAVTSRASGVPSRFSGSGSGTDFTLTISSLQPEDFATYYCQQSYDSPLTFGGGTKVEIK
notes: VH/VL only
B5: 376_B05 (antibody, V domains shown)
VH: EVQLLESGGGLVQPGGSLRLSCAASGFTFSSYSMNWVRQAPGKGLEWVANINYNGGYTGYADSVKGRFTISRDNSKNTLYLQMNSLRAEDTAVYYCARSANWHDTALDYWGQGTLVTVSS
VL: DIQMTQSPSSLSASVGDRVTITCRASQSIISYVNWYQQKPGKAPKLLIYAATSRASGVPSRFSGSGSGTDFTLTISSLQPEDFATYYCQQSYELPLTFGGGTKVEIK
notes: VH/VL only
B6: 376_B01 (antibody, V domains shown)
VH: EVQLLESGGGLVQPGGSLRLSCAASGFTFDSYSMNWVRQAPGKGLEWVAGINYNGGYTSYADSVKGRFTISRDNSKNTLYLQMNSLRAEDTAVYYCARSATWHDTHLDYWGQGTLVTVSS
VL: DIQMTQSPSSLSASVGDRVTITCRASQSILTYVNWYQQKPGKAPKLVIYAATSRASGVPSRFSGSGSGTDFTLTISSLQPEDFATYYCQQSYNLPLTFGGGTKVEIK
notes: VH/VL only
B7: 376_A12 (antibody, V domains shown)
VH: EVQLLESGGGLVQPGGSLRLSCAASGFTFSSYSMNWVRQAPGKGLEWVANINYNSGYKGYADSVKGRFTISRDNSKNTLYLQMNSLRAEDTAVYYCARSANWHDTALDYWGQGTLVTVSS
VL: DIQMTQSPSSLSASVGDRVTITCRASQSILSYVNWYQQKPGKAPKLVIYAATSRASGVPSRFSGSGSGTDFTLTISSLQPEDFATYYCQQSYDTPLTFGGGTKVEIK
notes: VH/VL only
B8: 376_B11 (antibody, V domains shown)
VH: EVQLLESGGGLVQPGGSLRLSCAASGFTFSSYSMNWVRQAPGKGLEWVSGINYNGGYTSYADSVKGRFTISRDNSKNTLYLQMNSLRAEDTAVYYCARSANWHDTALDYWGQGTLVTVSS
VL: DIQMTQSPSSLSASVGDRVTITCRASQSILSYVNWYQQKPGKAPKLVIYAATSRASGVPSRFSGSGSGTDFTLTISSLQPEDFATYYCQQSYDLPLTFGGGTKVEIK
notes: VH/VL only
B9: 376_A10 (antibody, V domains shown)
VH: EVQLLESGGGLVQPGGSLRLSCAASGFTFSDYGMNWVRQAPGKGLEWVSNINYNSGYKGYADSVKGRFTISRDNSKNTLYLQMNSLRAEDTAVYYCARSANWHDTALDYWGQGTLVTVSS
VL: DIQMTQSPSSLSASVGDRVTITCRASQSILSYLNWYQQKPGKAPKLLIYAATSRASGVPSRFSGSGSGTDFTLTISSLQPEDFATYYCQQSYESPLTFGGGTKVEIK
notes: VH/VL only
B10: 376_C11 (antibody, V domains shown)
VH: EVQLLESGGGLVQPGGSLRLSCAASGFTFDSYSMNWVRQAPGKGLEWVAGINYNSGYKSYADSVKGRFTISRDNSKNTLYLQMNSLRAEDTAVYYCARSATWHDTHLDYWGQGTLVTVSS
VL: DIQMTQSPSSLSASVGDRVTITCRASQSILTYLNWYQQKPGKAPKLVIYAATSRASGVPSRFSGSGSGTDFTLTISSLQPEDFATYYCQQSYDNPLTFGGGTKVEIK
notes: VH/VL only
B11: 376_B09 (antibody, V domains shown)
VH: EVQLLESGGGLVQPGGSLRLSCAASGFTFDSYSMNWVRQAPGKGLEWVANINYNSGYKGYADSVKGRFTISRDNSKNTLYLQMNSLRAEDTAVYYCARSANWHDTALDYWGQGTLVTVSS
VL: DIQMTQSPSSLSASVGDRVTITCRASQSILTYVNWYQQKPGKAPKLVIYAATSRASGVPSRFSGSGSGTDFTLTISSLQPEDFATYYCQQSYDLPLTFGGGTKVEIK
notes: VH/VL only
B12: 375_H12 (antibody, V domains shown)
VH: EVQLLESGGGLVQPGGSLRLSCAASGFTFSSYGMNWVRQAPGKGLEWVAGINYNGGYKGYADSVKGRFTISRDNSKNTLYLQMNSLRAEDTAVYYCARSANWHDTALDYWGQGTLVTVSS
VL: DIQMTQSPSSLSASVGDRVTITCRASQSILTYLNWYQQKPGKAPKLLIYYVTNRQSGVPSRFSGSGSGTDFTLTISSLQPEDFATYYCQQSYSIPLTFGGGTKVEIK
notes: VH/VL only
B13: 376_B04 (antibody, V domains shown)
VH: EVQLLESGGGLVQPGGSLRLSCAASGFTFDSYGMHWVRQAPGKGLEWVASINYNGGYTGYADSVKGRFTISRDNSKNTLYLQMNSLRAEDTAVYYCARSANWHDTALDYWGQGTLVTVSS
VL: DIQMTQSPSSLSASVGDRVTITCRASQSIVSYVNWYQQKPGKAPKLVIYAATSRASGVPSRFSGSGSGTDFTLTISSLQPEDFATYYCQQSYDTPLTFGGGTKVEIK
notes: VH/VL only
B14: 376_A06 (antibody, V domains shown)
VH: EVQLLESGGGLVQPGGSLRLSCAASGFTFDSYSMNWVRQAPGKGLEWVSGINYNSGYTSYADSVKGRFTISRDNSKNTLYLQMNSLRAEDTAVYYCARSATWHDTALDYWGQGTLVTVSS
VL: DIQMTQSPSSLSASVGDRVTITCRASQSILSYLNWYQQKPGKAPKLVIYYVSNRASGVPSRFSGSGSGTDFTLTISSLQPEDFATYYCQQSYDNPLTFGGGTKVEIK
notes: VH/VL only
B15: 376_A04 (antibody, V domains shown)
VH: EVQLLESGGGLVQPGGSLRLSCAASGFTFDSYSMNWVRQAPGKGLEWVSNINYNGGYTSYADSVKGRFTISRDNSKNTLYLQMNSLRAEDTAVYYCARSANWHDTALDYWGQGTLVTVSS
VL: DIQMTQSPSSLSASVGDRVTITCRASQSIVTYLNWYQQKPGKAPKLVIYAATSRASGVPSRFSGSGSGTDFTLTISSLQPEDFATYYCQQSYDSPLTFGGGTKVEIK
notes: VH/VL only
B16: 376_B06 (antibody, V domains shown)
VH: EVQLLESGGGLVQPGGSLRLSCAASGFTFSSYSMNWVRQAPGKGLEWVAGINYNSGYKGYADSVKGRFTISRDNSKNTLYLQMNSLRAEDTAVYYCARSATWHDTHLDYWGQGTLVTVSS
VL: DIQMTQSPSSLSASVGDRVTITCRASQSILTYLNWYQQKPGKAPKLLIYAATSRASGVPSRFSGSGSGTDFTLTISSLQPEDFATYYCQQSYDLPLTFGGGTKVEIK
notes: VH/VL only
B17: 375_G07 (antibody, V domains shown)
VH: EVQLLESGGGLVQPGGSLRLSCAASGFTFDSYSMNWVRQAPGKGLEWVAGINYNSGYTSYADSVKGRFTISRDNSKNTLYLQMNSLRAEDTAVYYCARSATWHDTHLDYWGQGTLVTVSS
VL: DIQMTQSPSSLSASVGDRVTITCRASQSILSYLNWYQQKPGKAPKLVIYAATSLASGVPSRFSGSGSGTDFTLTISSLQPEDFATYYCQQSYDLPLTFGGGTKVEIK
notes: VH/VL only
B18: 376_C12 (antibody, V domains shown)
VH: EVQLLESGGGLVQPGGSLRLSCAASGFTFSSYSMNWVRQAPGKGLEWVAGINYNGGYTGYADSVKGRFTISRDNSKNTLYLQMNSLRAEDTAVYYCARSANWHDTALDYWGQGTLVTVSS
VL: DIQMTQSPSSLSASVGDRVTITCRASQSILTYVNWYQQKPGKAPKLLIYAATSRASGVPSRFSGSGSGTDFTLTISSLQPEDFATYYCQQSYDSPLTFGGGTKVEIK
notes: VH/VL only
B19: 376_C01 (antibody, V domains shown)
VH: EVQLLESGGGLVQPGGSLRLSCAASGFTFDSYSMNWVRQAPGKGLEWVAGINYNGGYTSYADSVKGRFTISRDNSKNTLYLQMNSLRAEDTAVYYCARSANWHDTALDYWGQGTLVTVSS
VL: DIQMTQSPSSLSASVGDRVTITCRASQSILTYLNWYQQKPGKAPKLLIYAATSLASGVPSRFSGSGSGTDFTLTISSLQPEDFATYYCQQSYDNPLTFGGGTKVEIK
notes: VH/VL only

Key:
human ACVR2A = human ACVR2A (human, UniProt P27037 20-135, limits assumed); experiment: ELISA
human ACVR2A, sequence (P27037 20-135 limits assumed): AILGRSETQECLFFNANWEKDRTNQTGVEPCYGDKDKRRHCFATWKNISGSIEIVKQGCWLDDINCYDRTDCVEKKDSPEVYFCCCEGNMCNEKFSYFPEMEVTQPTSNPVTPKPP
Summary of the method: (§1)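 Binding signal was read by ELISA after ACVR2A-specific monoclonal antibodies were tested against human ACVR2A and mouse ACVR2A, with human Fc as the negative control.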

mouse ACVR2A = mouse ACVR2A (mouse, UniProt P27038 20-135, limits assumed); experiment: ELISA
mouse ACVR2A, sequence (P27038 20-135 limits assumed): as the sequence (P27037 20-135 limits assumed) above, with K20R, V73I counted along it
Summary of the method: as §1

[1] = biological target: T1, biotinylated goat anti-human kappa light chain; experiment: ELISA; positive control
T1 construct: Positive control of the ELISA
Summary of the method: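 ELISA measured binding of ACVR2A-specific monoclonal antibodies to human and mouse ACVR2A. Biotinylated goat anti-human kappa light chain served as positive control and human Fc as negative control.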
Further: test concentration or dose not given here.

Binder | optical density (human ACVR2A) [OD] | optical density (mouse ACVR2A) [OD] | optical density [1] [OD]
B1 | 3.68 | 3.81 | 3.06
B2 | 3.73 | 3.71 | 3.53
B3 | 3.49 | 3.56 | 3.43
B4 | 3.44 | 3.53 | 3.44
B5 | 3.65 | 3.78 | 3.52
B6 | 3.28 | 3.67 | 3.24
B7 | 3.7 | 3.34 | 3.22
B8 | 3.69 | 3.75 | 3.61
B9 | 3.68 | 3.64 | 3.17
B10 | 3.7 | 3.63 | 3.46
B11 | 3.78 | 3.72 | 3.51
B12 | 3.26 | 3.1 | 3.26
B13 | 3.41 | 3.48 | 3.58
B14 | 3.69 | 3.74 | 3.16
B15 | 3.59 | 3.58 | 3.12
B16 | 3.7 | 3.77 | 3.46
B17 | 3.63 | 3.67 | 3.2
B18 | 3.7 | 3.32 | 3.39
B19 | 3.26 | 3.6 | 3.2
